This is an account of results in the DeepSol protein solubility set.

The nature of the data set: soluble on expression in E. coli; label from the status in PepcDB or PDB records.
For “MKKTLATLFLLTCLGSSSAYADNALILQTDFSLKDGAVSAMKGVAFGVDHNLKIFDLTHEIPPYNIWEGAYRLYQTASYWPQGSVFVSVVDPGVGTDRKSIVLKTKNGQYFVSPDNGTLTLVAESLGIESVREIDEKANRLKGSEKSYTFHGRDVYAYTGARLASGAITFEQVGPELPAKVVELSYQKAKATKGEVKGNIPILDIQYGNVWSNISDELLNQAGIKLNDTLCVTISEGSRQKYAGKMPYVASFGDVPEGQPMVYLNSLLNVSVALNMDNFAQKHQVASGADWNIDVKKCDK”, the “soluble on expression in E. coli” value was “not soluble”.
“MGSDKIHHHHHHMIGKRFFQTTSKKIAFAFDIDGVLFRGKKPIAGASDALKLLNRNKIPYILLTNGGGFSERARTEFISSKLDVDVSPLQIIQSHTPYKSLVNKYSRILAVGTPSVRGVAEGYGFQDVVHQTDIVRYNRDIAPFSGLSDEQVMEYSRDIPDLTTKKFDAVLVFNDPHDWAADIQIISDAINSENGMLNTLRNEKSGKPSIPIYFSNQDLLWANPYKLNRFGQGAFRLLVRRLYLELNGEPLQDYTLGKPTKLTYDFAHHVLIDWEKRLSGKIGQSVKQKLPLLGTKPSTSPFHAVFMVGDNPASDIIGAQNYGWNSCLVKTGVYNEGDDLKECKPTLIVNDVFDAVTKTLEKYA”: the “soluble on expression in E. coli” value is reported as “not soluble”.
Turning to “MQTYGGGWVLFQNRFDDSESYWDRKWDEYKNGFGDVDENSNFWLGNEALHVMTTNKKVTLRVEMYGDRTPNSKNATDFWFGHYFDFQVGSKTQNYPLLDLTMDWANPIGNASTAWYDLTCSIGSPFSTIDNIHDPVKECVTKFQMG”, the “soluble on expression in E. coli” value is recorded as “not soluble”.
In the case of “MAGASHDIHPPKVEYFDLRDHTNTDPKGFVRHVDHYRVEPWGLYMARTSDHPQFHYLESWLLPDLGLRASIFHYHPYHQRDQDHYVDIGTFTRGDDVWKSEDHYLDLVVRTGRDTELLDVDELMEAHTTGLLDTATAEQAILTATTAIDGIAAHGHDLGRWLASIGMPIDWR”, the “soluble on expression in E. coli” value was “soluble”.
On to “MSLGKYFGTDGVRGEANVELTPELAFKLGRFGGYVLSQHETERPKVFVARDTRISGEMLESALIAGLLSVGIEVYKLGVLATPGVSYLVRTEKASAGVMISASHNPALDNGIKFFGNDGFKLADDQELEIEALLDAPEDTLPRPSAEGLGTLVDYPEGLRKYEKFLVTTGTDLSGMTVALDTANGAASVSARDVFLDLNAEIAVIGEKPNGLNINDGVGSTRPEQLQELVKETGADLGLAFDGDSDRLIAVDETGEIVDGDRIMFIIGKYLSEKGLLAHNTIVTTVMSNLGFHKALDKQGINKAITAVGDRYVVEEMRSSGYNLGGEQSGHVIIMDYNTTGDGQLTAIQLAKVMKETGKSLSELAAEVTIYPQKLVNIRVENSMKERAMEVPAIANIIAKMEDEMAGNGRILVRPSGTEPLLRVMAEAPTDAEVDYYVDTIADVVRTEIGCDNEGHHHHHH”, for which the “soluble on expression in E. coli” value was “soluble”.
Under “MNLLQHIAQSRQQLRKSELKVADHVLNDPASVMHSSMAELAHGVGVSEPTIVRFCRAIGCSGFQDLKLKLAQSLAAGASFGQFSIHESDSVADFSLKIFDTTLHSLMEVREHLDTHALERAIAAIAHAQRVEFYGFGASGAVASDAQHKFFRLLLSAAAYSDPHMQAMSAVTLKPSDVAICISQSGRSKDLLITANLVREAGATLITLCPSQTPLADLATVNLAIDVHEDTDIYTPLTSRIAHLVVIDVLAMGVAMARGPDLVNHLKSVKRSLRSLRLSPKVMKNQEERGEPS” stands “not soluble”; under “MSLFARQLQSLTASGIRTQQVRLASTEVSFHTKPCKLHKLDNGPNTSVTLNREDALKYYRDMQVIRRMESAAGNLYKEKKIRGFCHLYSGQEACAVGMKAAMTEGDAVITAYRCHGWTWLLGATVTEVLAELTGRVAGNVHGKGGSMHMYTKNFYGGNGIVGAQQPLGAGVALAMKYREQKNVCVTLYGDGAANQGQLFEATNMAKLWDLPVLFVCENNGFGMGTTAERSSASTEYYTRGDYVPGIWVDGMDILAVREATKWAKEYCDSGKGPLMMEMATYRYHGHSMSDPGTSYRTREEIQEVRKTRDPITGFKDRIITSSLATEEELKAIDKEVRKEVDEALKIATSDGVLPPEALYADIYHNTPAQEIRGATIDETIVQPFKTSADVLKSIGRA”, “not soluble”; under “MPKKRTPYETWRKNIRPIIWKRDNKQCIRCKKTVLLSECHIDHIISGLHGDNRLQNLRTLCRRCHVLRSDRLHRGMIAKALKDGVITADWRQYVWEEESLLKRLEHHHHHH”, “not soluble”.
Consider “MYNISFTPDRPLTYHLEDDQSLARLSLVPGRGGLVTEWTVQGQPILYFDRERFQDPSLSVRGGIPILFPICGNLPQDQFNHAGKSYRLKQHGFARDLPWEVIGQQTQDNARLDLRLSHNDATLEAFPFAFELVFSYQLQGHSLRIEQRIANLGDQRMPFSLGFHPYFFCREKLGITLAIPANDYLDQKTGDCHGYDGQLNLTSPELDLAFTQISQPRAHFIDPDRNLKIEVSFSELYQTLVLWTVAGKDYLCLEPWSGPRNALNSGEQLAWVEPYSSRSAWVNFQVSTELEHHHHHH”, for which the “soluble on expression in E. coli” value is “soluble”.
In the case of “MNNRDQLFKAPPFENHSPLTWYQAASQLPNFIRDDAQAAAIEHLDRLWTELMMFKRKRNRFLGRSLRSPQVPKGLYFYGGVGRGKSFLMDAFFGCLPYRRKRRVHFHAFMAEIHRRLKALKSESNPLKSVAAEITKETRVLCFDEFHVSDIADAMILGRLLENLLNEGVVLVATSNYAPSELYPQGQNRSGFLPTIALIESSLTVLNVDGGEDYRLRTLRPAEIFFTPANEENEAKLAKLFKEMTGITDLNPGISTIHGREIPHKAESGRTIWFDFRALCFSPRSQSDYLYLAEHYEMVFISGLEQLSPQEKAEARRLTWLIDVLYDFRVKLCATGAVDVNHIYTEGDFAEEFTRTASRMVEMQSEVYLEQPHLTLSPKASGGLEHHHHHH”, the “soluble on expression in E. coli” value is “soluble”.
Under “MVAFTVDQMRSLMDKVTNVRNMSVIAHVDHGKSTLTDSLVQRAGIISAAKAGEARFTDTRKDEQERGITIKSTAISLYSEMSDEDVKEIKQKTDGNSFLINLIDSPGHVDFSSEVTAALRVTDGALVVVDTIEGVCVQTETVLRQALGERIKPVVVINKVDRALLELQVSKEDLYQTFARTVESVNVIVSTYADEVLGDVQVYPARGTVAFGSGLHGWAFTIRQFATRYAKKFGVDKAKMMDRLWGDSFFNPKTKKWTNKDTDAEGKPLERAFNMFILDPIFRLFTAIMNFKKDEIPVLLEKLEIVLKGDEKDLEGKALLKVVMRKFLPAADALLEMIVLHLPSPVTAQAYRAEQLYEGPADDANCIAIKNCDPKADLMLYVSKMVPTSDKGRFYAFGRVFAGTVKSGQKVRIQGPNYVPGKKDDLFIKAIQRVVLMMGRFVEPIDDCPAGNIIGLVGIDQFLLKTGTLTTSETAHNMKVMKFSVSPVVQVAVEVKNANDLPKLVEGLKRLSKSDPCVLTYMSESGEHIVAGTGELHLEICLQDLEHDHAGVPLKISPPVVAYRETVESESSQTALSKSPNKHNRIYLKAEPIDEEVSLAIENGIINPRDDFKARARIMADDYGWDVTDARKIWCFGPDGNGPNLVIDQTKAVQYLHEIKDSVVAAFQWATKEGPIFGEEMRSVRVNILDVTLHADAIHRGGGQIIPTMRRATYAGFLLADPKIQEPVFLVEIQCPEQAVGGIYSVLNKKRGQVVSEEQRPGTPLFTVKAYLPVNESFGFTGELRQATGGQAFPQMVFDHWSTLGSDPLDPTSKAGEIVLAARKRHGMKEEVPGWQEYYDKL” stands “soluble”; under “MHHHHHHSSGVDLGTENLYFQSNAMADCYLTEKKKNFIPIQPMMPDELPDWLDTQDARTQQWVKASGFVGLAGTICSIPESTGALQRVLLGVSDYEYSWDFGGLSKVLPPGAFQLNRDDFEDDEYYERALLAFGLGSYQFNAYRKRSPYLAKLFLPQAHRKRVTDWLTTIYLIRDLINTPAEDMGPSELAQAVKHVAKEFEAKVKIIESKDLETEFPAIYAVGRAGSRPPLLIDLKWGDIKAPKVTLVGKGVCFDSGGLDIKTPGGMLLMKKDMGGAAHALGLARMIMLQQLPVRLRLLIPAVENAIGSRSYRPGDVVQTRARKTIEITNTDAEGRVVLADALAEAVKEDPDLIIDFSTLTGAARIALGPNLPALFANQDSLAQALIDASLKTDDPLWRLPLFQPYRNYLKSEVADLTNSSQNRMAGAITAALFLQHFVSDQIPWAHFDIFAWNLEDLPGRPIGGEAMALRAVFHYLEQQYR”, “soluble”.
Under “VVGHIVNDLQRRKVGDQEVVKFRVASNSRRRTSDGGWEPGNSLFITVNCWGRLVTGVGAALGKGAPVIVVGHVYTSEYEDRDGIRRSSLEMRATSVGPDLSRVIVRIEKPAYTGPSAGDLPAATGTGAAGAADAPASAADSVSDVVVDDAITGHNPLPISA” stands “not soluble”.
For “MSGIGKRELIELYDKLLQFYGKQNWWPVDLEYHKTHGSDPREEVIIGAILTQNTSWKNVEKALENLKREKALNLKAIKEIPTEKLMELIKPAGFYRQKSLYLKEFANKFPSISHLKNVKREDLLKVKGIGKETADAILLYALDRLEFVVDAYTKRLLERLWNIKGSYEEIKRLFEKNLPKDLEIYREFHALIDIHAKEFCKKKPLCEECPLREKCIKSCF” the value was “soluble”.
For “GNFGWSSYLTYSLNRNKVVELLRNYEDPYTHELTSLDRIDMGGTSMYKMILTEGGSIGDIYVNTLRTDEHGAIYVHPSDQVVVTQPDEFVKAGNSAPKYNLGWGNTFSYKGLSLGFLFTARVGGVVVSQTQATMDAYGSSKATAIARDNGGAIVNGRPIGAEDYYTKIGGAGAQGGIGSMYTYSATNVRLAELSLGYDIPINKYVDWIKGLNVSFIGKNLFFLYRKAPFDPELTASTGTYFQGIDMFMSPSLRNLGFSVKVNF”, the “soluble on expression in E. coli” value is given as “not soluble”.
Take “MGSDKIHHHHHHMAAGRDTALLMMNLMNAPVPLSPALELALPVDTAVVGVGYFGSLHALCYSRLPGSRLQALIDPDPITQFLAEHLGVPWFPGVAELPSTIRAVSVATPVAMHFGLTRSLLQQGLDVLLEKPIAETAAQATELRMVAEANQCILQIGHIERFNPAYTAGGTLLPFARTVRSVRTTRHPPRSSALDVVIDLMIHDLDLILHSLDSSVVELRASGRSCGLTAIDEAEVELTFSNGCRVYLDAHWGRDTEQDARCMVAELENDETWVIDFRRRMTYRKEPGSSTGPLPADGHTLPFPMQRIQEDTLSLQLAAFLDACRNRSLPRVTPAEGNAALELAHCIRQQILRPCP”: the “soluble on expression in E. coli” value is “not soluble”.
Turning to “MSMAMSQSNRELVVDFLSYKLSQKGYSWSQFSDVEENRTEAPEGTESEMETPSAINGNPSWHLADSPAVNGATGHSSSLDAREVIPMAAVKQALREAGDEFELRYRRAFSDLTSQLHITPGTAYQSFEQVVNELFRDGVNWGRIVAFFSFGGALCVESVDKEMQVLVSRIAAWMATYLNDHLEPWIQENGGWDTFVELYGNNAAAESRKGQERLEHHHHHH”, the “soluble on expression in E. coli” value is “soluble”.
For “MGFDESSQMIDPDGELSFFKQNENRTPVTSVPSTSKAVLPFNFDDDEDDEYFKTPKIAEKKKKLPEAMAPVSEDSFDFDIAVPQSIINRIPAKTTAQPAKKYPKIPNLSAKTSSKPTEAPKTENVLKIKSKSQEIAQKPQKSTRISSFFSRTTSSTSNLTEYKRGKSAKMKHISKMEQFFVEHERDIICVGECGLDHTISQFKLTTEDFEEQETVFKWQIDLAKHFEKPLILEIPDISRNVHSRSAARRTIEILLECHVAPDQVVLHAFDGTPGDLKLGLEAGYLFSIPPSFGKSEETTQLIESIPLSQLLLETDSPALGPEKGCKNVPANLRISAEIVAKIKKLEIDDIISATSTNANRIFKF”, the “soluble on expression in E. coli” value is recorded as “soluble”.
